Experimental data: the supplement of paper PMC10567573
± gives the standard deviation.

Experiment: protein stability index of a GFP-peptide fusion (GPS, HEK-293T) (PSI 1-6); higher = more stable
[1] = treatment: DMSO, c terminus: a fixed tail appended
[2] = treatment: MLN4924 1 uM, 8 h, c terminus: a fixed tail appended
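Note: 24-mer peptide tiles fused after GFP, lentivirally expressed, FACS-sorted into six equal bins by GFP/DsRed ratio, decoded by Illumina sequencing, PSI is the read-weighted mean bin number.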

Sequence | protein stability index [1] | protein stability index [2] | protein stability index (treatment: DMSO, c terminus: native) | protein stability index (treatment: MLN4924 1 uM, 8 h, c terminus: native)
ELLLFAVGFIMAGTPMALIVISYI [OR3A1] | 2.56 ± 0.033 | 3.09 ± 0.28 |  | 
ELNAIMNKNSTDVKGCSMYVALFP [DCTD] | 2.71 ± 0.26 | 2.35 ± 0.71 |  | 
ELQQELSLKDQERVAEVSRVRVEL [LRRC45] | 3.5 ± 0.17 | 3.78 ± 0.24 |  | 
ELSEEGAEGRVVGRKDITSILRAP [MOSPD3] | 4.82 ± 0.11 | 4.78 ± 0.18 |  | 
ENAAFKDVALVLTVLLEEETLEAS [TOR1AIP2] | 2.31 ± 0.33 | 2.4 ± 0.34 |  | 
ENAELESRIQEWYEFQIPYICPDY [KRT36] | 2.77 ± 0.46 | 2.9 ± 0.44 |  | 
ENILADNSVNDQTKILVVNAAYFV [SERPINB5] | 2.25 ± 0.21 | 2.34 ± 0.17 |  | 
ENSICVGFKRDYYLIRVDGKGSIK [VPS39] | 2.16 ± 0.54 | 2.35 ± 0.37 |  | 
ENYLNRCMDQERLRRESTSQKEMD [FCHO1] | 4.24 ± 0.28 | 4.56 ± 0.3 |  | 
EPGGPGWLPESDCETVTCCLFSER [SMAD6] | 3.96 ± 0.35 | 4.16 ± 0.42 |  | 
EQEDPADYCKGGYHPVKIGDLFNG [SRPK2] | 3.9 ± 0.32 | 3.98 ± 0.47 |  | 
EQLRREKIDLENTLEQEQEALVNR [CCDC6] | 5.2 ± 0.27 | 5.42 ± 0.1 |  | 
EQLSVLASCLQELFKAHFRGEVLP [INTS3] | 2.52 ± 0.42 | 2.5 ± 1.1 |  | 
ERGLKKIRLGIEGYPTYKEKVKKR [BTBD10] | 3.59 ± 0.3 | 3.66 ± 0.33 |  | 
ERKGWLAPSPGVKEQAIWKHPQPA [PKD2L1] | 3.52 ± 0.21 | 3.73 ± 0.41 |  | 
ERLERAVSDRLAPGAPRGNPPKAS [MYCL] | 4.84 ± 0.44 | 5.23 ± 0.26 |  | 
ERMPPSGAARSFQEVTEPAVVAVD [PXN] | 4.95 ± 0.17 | 5.29 ± 0.31 |  | 
ERRQTLNLISLLALRVLAEQNIIP [TENT5C] | 2.26 ± 0.88 | 2.15 ± 0.24 |  | 
ERSMSENAVRQNGQLVRNDSLWHR [MFF] | 3.84 ± 0.42 | 3.69 ± 0.4 |  | 
ERYDPNIDQWSMLGDMQTAREGAG [KLHL12] | 4.2 ± 0.25 | 4.33 ± 0.19 |  | 
ESESPQSHRAAGSGVSDYDYLDLD [TRIM9] | 5.5 ± 0.19 | 5.35 ± 0.2 |  | 
ESGLGHFSLRVHTGCHKKLGPEAR | 3.24 ± 0.46 | 3.32 ± 0.24 |  | 
ESIDFDQGELADQDVDPVHNLIEQ [FBXO33] | 5.51 ± 0.16 | 5.22 ± 0.26 |  | 

Sequence | protein stability index [1] | protein stability index [2] | protein stability index (treatment: DMSO, c terminus: native) | protein stability index (treatment: MLN4924 1 uM, 8 h, c terminus: native)
ESPRWLYSQGRLSEAEEALYLIAK [SLC22A15] | 2.75 ± 0.21 | 2.66 ± 0.45 |  | 
ESSAKSKINVNEIFYDLVRQINRK [RAP1B] | 1.92 ± 0.38 | 1.96 ± 0.25 |  | 
ETKGQINNSIKDLTDGHFENILAD [SERPINB5] | 4.84 ± 0.42 | 4.9 ± 0.32 |  | 
ETRVTSGSMEALNLKQLRKRGSIP [PPFIA4] | 4.6 ± 0.07 | 4.75 ± 0.22 |  | 
ETTSQQERLQAIAEKRKRQAEIEN [PALM] | 4.94 ± 0.14 | 5.06 ± 0.12 |  | 
EVAAKNQSLEGDTTKGTSEMSEKR [MLH1] | 5.15 ± 0.26 | 5.46 ± 0.56 |  | 
EVLRMCVAVKKKLQLYFWKDREFH [VPS39] | 2.49 ± 0.34 | 2.55 ± 0.34 |  | 
EVLSLGVQVPEAWEELLTMKVEAK [ZSCAN9] | 3.53 ± 0.67 | 3.45 ± 0.22 |  | 
EYAWCLVRSKYNDDIRKGIVLLEE [FIS1] | 2.13 ± 0.43 | 2.03 ± 0.26 |  | 
EYHQPQAPANVAKIQLRLAGQKRK [LOXL2] | 4.34 ± 0.43 | 4.54 ± 0.4 |  | 
FAFSNGYLASLCMCFGPKKVKPAE [SLC29A1] | 2 ± 0.36 | 2.34 ± 0.21 |  | 
FAIGVCTGLVGLFVDFFVRLFTQL [CLCN6] | 2.65 ± 0.52 | 2.32 ± 0.56 |  | 
FAQRTFDYELLQMLQIVVGVRDSG [PCDHGC5] | 3.01 ± 0.53 | 2.74 ± 0.84 |  | 
FAYLEDLHSEFDEQHGKKVPTVSR [SEC22B] | 3.64 ± 0.24 | 3.73 ± 0.33 |  | 
FCQTDQTCICYLCMFQEHKNHSTV [TRIM29] | 2.2 ± 0.085 | 2.66 ± 0.32 |  | 
FCSVIRINSTAPFEEQENYFLLCD [ZNF277] | 2.46 ± 0.7 | 1.83 ± 0.15 |  | 
FDRKKKSISLMYGGSKRKSSFFSS [SLA] | 2.53 ± 0.22 | 2.68 ± 0.4 |  | 
FEAAFGTTPSTSSSSSFDPSVFDG [SNAP91] | 4.61 ± 0.12 | 4.53 ± 0.22 |  | 
FEDPRDAEDAVYGRDGYDYDGYRL [SRSF1] | 4.73 ± 0.18 | 4.8 ± 0.14 |  | 
FFEILRLFFPVIYDVKYLMKSCKN [CNOT7] | 2.37 ± 0.9 | 2.87 ± 0.048 |  | 
FFEKPDYDYLRKLFTDLFDRKGYM [CSNK1G3] | 2.05 ± 0.58 | 2.5 ± 0.25 |  | 
FHELQMQVTASDSGDPPLSSNVSL [PCDHGA10] | 2.93 ± 0.49 | 3.38 ± 0.54 |  | 
FHHIPSTCQRVNGIKVQNGGIVTD [SLC19A2] | 2.47 ± 0.55 | 3 ± 0.41 |  | 

Sequence | protein stability index [1] | protein stability index [2] | protein stability index (treatment: DMSO, c terminus: native) | protein stability index (treatment: MLN4924 1 uM, 8 h, c terminus: native)
FHLGLEDILMEEEEGVVGGLSGGA [TFE3] | 3.75 ± 0.46 | 4.3 ± 0.46 |  | 
FICQATGDPRPKIVWNKKGKKVSN [PTPRD] | 2.84 ± 0.37 | 3.35 ± 0.68 |  | 
FIDGKFLPCSSYIDSYDPSTGEVY [ALDH8A1] | 2.44 ± 1.2 | 2.66 ± 0.11 |  | 
FIEGYCTPEEVIWEALNMMGLYDG [MAGEA10] | 2.48 ± 0.24 | 2.17 ± 0.26 |  | 
FKAVLDGLDVLLAQEVRPRRWKLQ [PRAME] | 2.25 ± 0.19 | 2.41 ± 0.35 |  | 
FKHPVIGVHVRRTDKVGTEAAFHP [FUT8] | 2.98 ± 0.31 | 3.13 ± 0.23 |  | 
FLHPDLGVGGAERLVLDAALALQA [ALG2] | 2.32 ± 0.43 | 2.27 ± 0.23 |  | 
FLVTMANIGINGNHSLETCETTLF [PTGFR] | 2.88 ± 0.88 | 2.5 ± 1.1 |  | 
FNKDLVQDCGFEHLVPVIEMWADQ [CEP70] | 2.45 ± 0.45 | 2.65 ± 0.61 |  | 
FNNVVEQNFKNRESYPEDTVFYIP [DLC1] | 3.01 ± 0.24 | 3.16 ± 0.2 |  | 
FPAEQYYRFHEHWRFVLQRLVFLA [TSN] | 2.44 ± 0.42 | 2.22 ± 0.27 |  | 
FPNRTDQQCQYRWLRVLNPDLVKG [MYBL2] | 2.4 ± 0.34 | 2.44 ± 0.53 |  | 
FPSTSYNARLQAMWGQSLLPPVST [TNXB] | 2.36 ± 0.32 | 2.51 ± 0.35 |  | 
FQAHRDKYEKLRGDVAIKLKFLEE [ARFIP2] | 2.89 ± 0.45 | 3.15 ± 0.25 |  | 
FQSISLRKIQFNFPYFRSDRDKRD [CLCN6] | 2.3 ± 0.34 | 2.75 ± 0.52 |  | 
FRAGMKKEAVQNERDRISTRRSSY [HNF4A] | 4.2 ± 0.21 | 4.17 ± 0.22 |  | 
FRGRRDVSGSWERDQQVEAAQRAL [RETREG3] | 4.48 ± 0.27 | 4.28 ± 0.23 |  | 
FRIIDSDHSGFISLDEFRQTWKLF [PPEF2] | 2.97 ± 1 | 2.37 ± 0.48 |  | 
FRNLVADRVLNYTSWSQHCPWEPQ [SPAG8] | 2.21 ± 0.21 | 2.36 ± 0.23 |  | 
FRPEMKKHSWCLKRKNPPNERTV [N4BP2L1] |  |  | 3.06 ± 0.2 | 3.04 ± 0.68
FRQFGYQDSPGPHEALSRLWELCH [ZNF396] | 2.28 ± 0.28 | 2.31 ± 0.24 |  | 
FSEPSFITESYQTLHPISSEELLS [ETS1] | 2.77 ± 0.4 | 3.28 ± 0.41 |  | 
FSINSRLASSLGNLNAATDDPENK [CDC14A] | 5.08 ± 0.26 | 5.1 ± 0.39 |  | 

Sequence | protein stability index [1] | protein stability index [2] | protein stability index (treatment: DMSO, c terminus: native) | protein stability index (treatment: MLN4924 1 uM, 8 h, c terminus: native)
FSRAGISEAQLTDAETSKLIYDFI [WAS] | 2.57 ± 0.2 | 2.95 ± 0.29 |  | 
FTFPGMSLDKRQGEGLRIYWGSPE [TPRG1] | 2.25 ± 0.35 | 2.38 ± 0.53 |  | 
FVTGNCLEISPDCSQYDRVYCGAG [PCMTD2] | 2.43 ± 0.19 | 2.33 ± 0.14 |  | 
FWDFAQGPLLDSLYWTKWYNNQSL [PKD2L1] | 2.3 ± 0.77 | 2.76 ± 0.94 |  | 
FWKKYRTFWKEDKAFWKEDNALWE [CCDC70] | 2.54 ± 0.49 | 2.26 ± 0.36 |  | 
FYDKQLKVLLSGATFLVTFGNSEK [ZFYVE21] | 2.45 ± 0.67 | 2.54 ± 0.54 |  | 
GAGAEESELQAYIAQCQDSPTSGK [MCOLN1] | 5.41 ± 0.14 | 5.45 ± 0.17 |  | 
GAGAGAPGGGRLLLSTSLDAKDEL [INTS3] | 5.04 ± 0.27 | 5.08 ± 0.068 |  | 
GAGEGAAASPELSALEEAFRRFAV [TPPP] | 3.58 ± 0.58 | 3.74 ± 0.44 |  | 
GAGRRRRAGGPPRPMSEPGAGAGS [SMAD6] | 5.22 ± 0.41 | 5.21 ± 0.14 |  | 
GAHKDCQVAPLTHVFQRQKSELSD [TRIM55] | 4.73 ± 0.34 | 4.83 ± 0.16 |  | 
GAKMTERGSVARPTQGPETPRSPE [PXN] | 5.59 ± 0.13 | 5.38 ± 0.26 |  | 
GASFTQKGNLLRHIKLHSGEKPFK [IKZF1] | 3.77 ± 0.23 | 3.72 ± 0.28 |  | 
GCQVSPEGYAHLTHLLMGLASGRI [HDAC6] | 2.46 ± 0.89 | 2.57 ± 0.53 |  | 
GCSAVLSGGSSSSFRAGSKGLSGG [KRT71] | 3.45 ± 0.14 | 3.48 ± 0.2 |  | 
GDSDSALDSVSPCPSSPKQIHLDV [DLC1] | 4.8 ± 0.37 | 4.66 ± 0.35 |  | 
GEKPFECRQRLIFEQTPALTKHEW [ZNF8] | 3.04 ± 0.85 | 2.93 ± 0.18 |  | 
GEKPYECQDCGRAFNQNSSLGRHK [ZNF8] | 3.19 ± 0.47 | 3.69 ± 0.23 |  | 
GELLGEARYYLVQGLIEDCQLALQ [KCTD13] | 2.15 ± 0.64 | 2.3 ± 0.28 |  | 
GELLLDVAWHPVRPIIASISSGVV [RBBP5] | 2.3 ± 0.54 | 2.42 ± 0.59 |  | 
